The values that follow come from US20110212476A1.

This assay addresses Gαi1 R178M/A326S (human). In words: cell-based or functional assay.

Sequence of Gαi1 R178M/A326S (human) (B2RSH2 2-354 R178M/A326S): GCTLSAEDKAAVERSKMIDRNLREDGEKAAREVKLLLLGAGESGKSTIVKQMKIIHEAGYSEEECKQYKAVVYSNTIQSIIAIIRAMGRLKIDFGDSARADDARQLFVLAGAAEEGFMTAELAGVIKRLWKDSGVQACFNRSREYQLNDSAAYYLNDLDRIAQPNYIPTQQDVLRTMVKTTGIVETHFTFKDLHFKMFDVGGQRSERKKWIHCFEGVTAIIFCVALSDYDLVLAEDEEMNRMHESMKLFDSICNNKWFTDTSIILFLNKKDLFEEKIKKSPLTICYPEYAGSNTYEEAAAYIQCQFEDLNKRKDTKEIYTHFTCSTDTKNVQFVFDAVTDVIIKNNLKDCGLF

B1: RGS21 (wild type RGS domain) (protein)
chain: NMDTLLANQAGLDAFRIFLKSEFSEENVEFWLACEDFKKTKNADKIASKAKMIYSEFIEADAPKEINIDFGTRDLISKNIAEPTLKCFDEAQKLIYCLMAKDSFPRFLKSEIYKKLV
As for B1, the stimulation of GTPase activity amounted to 8.8 fold.
